Results: publication PMC12069617 (Nature Communications, 2024)

Assays:
[1] = biological target: histone acetyltransferase p300, full-length, Strep II-tagged (human, UniProt Q09472 1-2414); assay: cross-linking
SEC-MALS = biological target: the molecule itself; assay: SEC-MALS

Chain of histone acetyltransferase p300, full-length, Strep II-tagged (Q09472 whole entry): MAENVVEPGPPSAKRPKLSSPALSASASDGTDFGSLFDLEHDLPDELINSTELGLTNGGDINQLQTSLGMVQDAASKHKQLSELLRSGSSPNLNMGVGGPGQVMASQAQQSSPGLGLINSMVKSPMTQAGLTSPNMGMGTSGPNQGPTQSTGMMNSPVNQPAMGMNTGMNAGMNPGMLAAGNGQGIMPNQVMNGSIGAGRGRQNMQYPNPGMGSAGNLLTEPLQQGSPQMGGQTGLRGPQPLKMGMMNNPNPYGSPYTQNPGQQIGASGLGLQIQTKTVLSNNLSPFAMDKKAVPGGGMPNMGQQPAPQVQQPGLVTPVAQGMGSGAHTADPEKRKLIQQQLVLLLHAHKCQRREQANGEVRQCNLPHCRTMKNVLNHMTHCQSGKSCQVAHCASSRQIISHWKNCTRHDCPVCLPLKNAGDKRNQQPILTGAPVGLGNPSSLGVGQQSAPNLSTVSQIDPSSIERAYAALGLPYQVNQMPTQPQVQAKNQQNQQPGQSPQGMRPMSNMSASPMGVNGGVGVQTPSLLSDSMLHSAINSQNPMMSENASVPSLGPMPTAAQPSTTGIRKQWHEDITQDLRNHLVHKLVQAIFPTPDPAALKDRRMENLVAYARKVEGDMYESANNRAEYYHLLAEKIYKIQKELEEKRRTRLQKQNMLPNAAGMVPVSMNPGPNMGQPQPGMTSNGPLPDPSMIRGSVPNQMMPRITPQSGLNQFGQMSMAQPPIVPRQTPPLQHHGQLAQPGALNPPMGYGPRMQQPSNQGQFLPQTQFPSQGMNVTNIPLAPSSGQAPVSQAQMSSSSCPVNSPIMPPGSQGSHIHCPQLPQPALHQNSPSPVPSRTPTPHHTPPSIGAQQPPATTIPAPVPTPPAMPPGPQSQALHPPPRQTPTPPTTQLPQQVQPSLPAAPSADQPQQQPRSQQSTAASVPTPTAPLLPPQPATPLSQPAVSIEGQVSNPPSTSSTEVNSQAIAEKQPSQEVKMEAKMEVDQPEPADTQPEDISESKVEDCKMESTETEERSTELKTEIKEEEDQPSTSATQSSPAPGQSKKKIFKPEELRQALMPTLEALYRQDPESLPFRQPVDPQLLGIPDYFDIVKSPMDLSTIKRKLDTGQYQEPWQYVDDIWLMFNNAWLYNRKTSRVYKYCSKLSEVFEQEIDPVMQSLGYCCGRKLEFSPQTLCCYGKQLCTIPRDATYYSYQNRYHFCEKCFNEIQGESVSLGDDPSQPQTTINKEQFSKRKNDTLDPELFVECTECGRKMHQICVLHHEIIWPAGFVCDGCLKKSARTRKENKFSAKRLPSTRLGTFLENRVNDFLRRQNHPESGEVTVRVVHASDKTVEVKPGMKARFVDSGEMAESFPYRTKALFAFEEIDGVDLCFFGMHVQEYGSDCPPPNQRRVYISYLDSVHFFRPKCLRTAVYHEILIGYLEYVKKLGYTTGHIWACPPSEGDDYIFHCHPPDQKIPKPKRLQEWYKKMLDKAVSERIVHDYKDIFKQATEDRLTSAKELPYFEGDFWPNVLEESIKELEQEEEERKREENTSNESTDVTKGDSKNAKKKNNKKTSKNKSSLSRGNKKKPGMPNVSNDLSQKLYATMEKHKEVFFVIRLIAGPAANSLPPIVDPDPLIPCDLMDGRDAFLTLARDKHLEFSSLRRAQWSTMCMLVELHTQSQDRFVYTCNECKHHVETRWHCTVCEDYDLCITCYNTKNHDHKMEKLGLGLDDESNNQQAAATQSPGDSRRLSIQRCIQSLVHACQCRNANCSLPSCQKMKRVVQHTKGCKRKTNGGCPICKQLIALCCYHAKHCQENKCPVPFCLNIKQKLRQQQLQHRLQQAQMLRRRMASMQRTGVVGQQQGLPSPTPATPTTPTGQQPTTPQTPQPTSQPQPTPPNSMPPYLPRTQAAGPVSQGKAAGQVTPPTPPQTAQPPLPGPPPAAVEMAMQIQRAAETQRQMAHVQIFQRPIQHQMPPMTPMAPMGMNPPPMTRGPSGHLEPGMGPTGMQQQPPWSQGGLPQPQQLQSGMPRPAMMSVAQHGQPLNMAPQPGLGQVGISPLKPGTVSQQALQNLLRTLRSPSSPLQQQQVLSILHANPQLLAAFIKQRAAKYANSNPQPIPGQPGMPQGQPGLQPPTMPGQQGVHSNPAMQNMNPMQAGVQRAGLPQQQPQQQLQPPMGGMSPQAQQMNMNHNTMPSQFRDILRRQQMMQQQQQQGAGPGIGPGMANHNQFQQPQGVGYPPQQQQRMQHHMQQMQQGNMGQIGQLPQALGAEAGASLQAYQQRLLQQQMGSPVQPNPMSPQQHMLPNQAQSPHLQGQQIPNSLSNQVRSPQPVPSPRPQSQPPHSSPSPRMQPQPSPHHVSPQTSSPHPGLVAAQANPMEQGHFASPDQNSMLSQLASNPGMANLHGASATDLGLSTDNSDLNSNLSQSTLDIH

binding result [1] | Binder | stoichiometry N (SEC-MALS)
binds | progesterone receptor isoform A (PR-A), full-length, Strep II-tagged (receptor, phosphorylated on multiple serine residues (sites not given)) MSRSGCKVGDSSGTAAAHKVLPRGLSPARQLLLPASESPHWSGAPVKPSPQAAAVEVEEEDGSESEESAGPLLKGKPRALGGAAAGGGAAAVPPGAAAGGVALVPKEDSRFSAPRVALVEQDAPMAPGRSPLATTVMDFIHVPILPLNHALLAARTRQLLEDESYDGGAGAASAFAPPRSSPCASSTPVAVGDFPDCAYPPDAEPKDDAYPLYSDFQPPALKIKEEEEGAEASARSPRSYLVAGANPAAFPDFPLGPPPPLPPRATPSRPGEAAVTAAPASASVSSASSSGSTLECILYKAEGAPPQQGPFAPPPCKAPGASGCLLPRDGLPSTSASAAAAGAAPALYPALGLNGLPQLGYQAAVLKEGLPQVYPPYLNYLRPDSEASQSPQYSFESLPQKICLICGDEASGCHYGVLTCGSCKVFFKRAMEGQHNYLCAGRNDCIVDKIRRKNCPACRLRKCCQAGMVLGGRKFKKFNKVRVVRALDAVALPQPVGVPNESQALSQRFTFSPGQDIQLIPPLINLLMSIEPDVIYAGHDNTKPDTSSSLLTSLNQLGERQLLSVVKWSKSLPGFRNLHIDDQITLIQYSWMSLMVFGLGWRSYKHVSGQMLYFAPDLILNEQRMKESSFYSLCLTMWQIPQEFVKLQVSQEEFLCMKVLLLLNTIPLEGLRSQTQFEEMRSSYIRELIKAIGLRQKGVVSSSQRFYQLTKLLDNLHDLVKQLHLYCLNTFIQSRALSVEFPEMMSEVIAAQLPKILAGMVKPLLFHKK | –
binds | progesterone receptor isoform B (PR-B), full-length, Strep II-tagged (receptor, phosphorylated on multiple serine residues (sites not given)) MTELKAKGPRAPHVAGGPPSPEVGSPLLCRPAAGPFPGSQTSDTLPEVSAIPISLDGLLFPRPCQGQDPSDEKTQDQQSLSDVEGAYSRAEATRGAGGSSSSPPEKDSGLLDSVLDTLLAPSGPGQSQPSPPACEVTSSWCLFGPELPEDPPAAPATQRVLSPLMSRSGCKVGDSSGTAAAHKVLPRGLSPARQLLLPASESPHWSGAPVKPSPQAAAVEVEEEDGSESEESAGPLLKGKPRALGGAAAGGGAAAVPPGAAAGGVALVPKEDSRFSAPRVALVEQDAPMAPGRSPLATTVMDFIHVPILPLNHALLAARTRQLLEDESYDGGAGAASAFAPPRSSPCASSTPVAVGDFPDCAYPPDAEPKDDAYPLYSDFQPPALKIKEEEEGAEASARSPRSYLVAGANPAAFPDFPLGPPPPLPPRATPSRPGEAAVTAAPASASVSSASSSGSTLECILYKAEGAPPQQGPFAPPPCKAPGASGCLLPRDGLPSTSASAAAAGAAPALYPALGLNGLPQLGYQAAVLKEGLPQVYPPYLNYLRPDSEASQSPQYSFESLPQKICLICGDEASGCHYGVLTCGSCKVFFKRAMEGQHNYLCAGRNDCIVDKIRRKNCPACRLRKCCQAGMVLGGRKFKKFNKVRVVRALDAVALPQPVGVPNESQALSQRFTFSPGQDIQLIPPLINLLMSIEPDVIYAGHDNTKPDTSSSLLTSLNQLGERQLLSVVKWSKSLPGFRNLHIDDQITLIQYSWMSLMVFGLGWRSYKHVSGQMLYFAPDLILNEQRMKESSFYSLCLTMWQIPQEFVKLQVSQEEFLCMKVLLLLNTIPLEGLRSQTQFEEMRSSYIRELIKAIGLRQKGVVSSSQRFYQLTKLLDNLHDLVKQLHLYCLNTFIQSRALSVEFPEMMSEVIAAQLPKILAGMVKPLLFHKK | 2
